Reference: PMC4243253 (Biochemical Journal, 2014)

Target: the molecule itself
Assay: SEC

B1: Pseudomonas aeruginosa kynurenine formamidase KynB, His-tagged (enzyme)
chain: MTSLRYWDISPALDPNTPTWPGDTPFQQEWAARLDEQCPVNVGRITLSPHTGAHVDGPLHYRADGLPIGQVPLDIYMGPCRVIHCIGANPLVTPEHLAGQLDDLPSRVLLRTFERVPANWPEGFCAIAPATIECLAERGVRLVGIDTPSLDPQHSKTLDAHHAVGRHGMAILEGVVLDDVPAGDYELLALPLKFTHLDASPVRAVLRALPTAE
notes: also called PaKynB; PaKynB-His; source: E. coli BL21(DE3)pLysS, purified (HisTrap, SEC Superdex75); not shown: His6, N-terminal, kept
stoichiometry N: 2

B2: Burkholderia cenocepacia kynurenine formamidase KynB (enzyme)
chain: MDTLWDISPPVSPATPVWPGDTPVAVERVWRMEAGSPVNVARLTLSPHTGAHCDAPLHYDADGAPIGAVPLDTYLGPCRVIHCIGAAPVVRPADVEAALDGVPPRVLLRTYARAAVEQWDSNFCAVAPDTVDLLAAHGVKLIGIDTPSLDPQESKTMDAHRRVRAHRMAILEGIVLDDVPPGDYELIALPLKFATLDASPVRAVLRALPAQAS
notes: also called BcKynB; KFase
stoichiometry N: 2
